In the RNAGym collection of RNA variant scans (doi:10.1093/molbev/msab373):

B1: Azoarcus group I ribozyme (parent)
chain: GUGCCUUGCGCCGGGAAACCACGCAAGGGAUGGUGUCAAAUUCGGCGAAACCUAAGCGCCCGCCCGGGCGUAUGGCAACGCCGAGCCAAGCUUCGGCGCCUGCGCCGAUGAAGGUGUAGAGACUAGACGGCACCCACCUAAGGCAAACGCUAUGGUGAAGGCAUAGUCCAGGGAGUGGCGAAAGUCACACAAACCGG

Variants of: B1
Experiment: reverse-splicing fitness (ratio to wild type); higher = more active; in vitro selection; Mg2+ level not given
Procedure, shortened: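 An in vitro group I ribozyme library with randomized positions was T7-transcribed and gel-purified. In triplicate, 10 pmol RNA in EPPS pH 7.5 was reacted with 50 pmoles of a 30-nt RNA substrate for 1 h at 37 °C across several added MgCl2 levels (1–48 mM), then stopped with EDTA. Products were reverse transcribed from a substrate-complementary primer, PCR-amplified and sequenced (HiSeq 4000). Fitness is a variant's read proportion after selection over that before, normalised to wild type.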

Variant	reverse-splicing fitness
GUGCCUUGCGCCGGGAAACCACGCAAGGGAUGGUGUCAAAUUCGGCGAAACCUAAGCGCCCGCCCGGGCGUAUGGCAACGCCGAGCCAAGCUUCGGCGCCUGCGCCGAUGCAGGUGUAGUGACUAGACGGCACCCACCUAAGGCGAACGAUAUGGUGAAGGCAUAGUCUAGGGAGAGGCGAAAGUCACACAAACCGG [A111C A120U A145G C150A C169U U176A]	0.00876
GUGCCUUGCGCCGGGAAACCACGCAAGGGAUGGUGUCAAAUUCGGCGAAACCUAAGCGCCCGCCCGGGCGUAUGGCAACGCCGAGCCAAGCUUCGGCGCCUGCGCCGAUGCAGGUGUAGUGACUAGACGGCACCCACCUAAGGCGAACGAUAUGGUGAAGGCAUAGUCUAGGGAGCGGCGAAAGUCACACAAACCGG [A111C A120U A145G C150A C169U U176C]	0.00638
GUGCCUUGCGCCGGGAAACCACGCAAGGGAUGGUGUCAAAUUCGGCGAAACCUAAGCGCCCGCCCGGGCGUAUGGCAACGCCGAGCCAAGCUUCGGCGCCUGCGCCGAUGCAGGUGUAGUGACUAGACGGCACCCACCUAAGGCGAACGAUAUGGUGAAGGCAUAGUCUAGGGAGGGGCGAAAGUCACACAAACCGG [A111C A120U A145G C150A C169U U176G]	0.00263
GUGCCUUGCGCCGGGAAACCACGCAAGGGAUGGUGUCAAAUUCGGCGAAACCUAAGCGCCCGCCCGGGCGUAUGGCAACGCCGAGCCAAGCUUCGGCGCCUGCGCCGAUGCAGGUGUAGUGACUAGACGGCACCCACCUAAGGCGAACGAUAUGGUGAAGGCAUAGUCCAGGGAGAGGCGAAAGUCACACAAACCGG [A111C A120U A145G C150A U176A]	0.046
GUGCCUUGCGCCGGGAAACCACGCAAGGGAUGGUGUCAAAUUCGGCGAAACCUAAGCGCCCGCCCGGGCGUAUGGCAACGCCGAGCCAAGCUUCGGCGCCUGCGCCGAUGCAGGUGUAGUGACUAGACGGCACCCACCUAAGGCGAACGAUAUGGUGAAGGCAUAGUCCAGGGAGCGGCGAAAGUCACACAAACCGG [A111C A120U A145G C150A U176C]	0.0554
GUGCCUUGCGCCGGGAAACCACGCAAGGGAUGGUGUCAAAUUCGGCGAAACCUAAGCGCCCGCCCGGGCGUAUGGCAACGCCGAGCCAAGCUUCGGCGCCUGCGCCGAUGCAGGUGUAGUGACUAGACGGCACCCACCUAAGGCGAACGAUAUGGUGAAGGCAUAGUCCAGGGAGGGGCGAAAGUCACACAAACCGG [A111C A120U A145G C150A U176G]	0.0111
GUGCCUUGCGCCGGGAAACCACGCAAGGGAUGGUGUCAAAUUCGGCGAAACCUAAGCGCCCGCCCGGGCGUAUGGCAACGCCGAGCCAAGCUUCGGCGCCUGCGCCGAUGCAGGUGUAGUGACUAGACGGCACCCACCUAAGGCGAACGGUAUGGUGAAGGCAUAGUCCAGGGAGUGGCGAAAGUCACACAAACCGG [A111C A120U A145G C150G]	0.0721
GUGCCUUGCGCCGGGAAACCACGCAAGGGAUGGUGUCAAAUUCGGCGAAACCUAAGCGCCCGCCCGGGCGUAUGGCAACGCCGAGCCAAGCUUCGGCGCCUGCGCCGAUGCAGGUGUAGUGACUAGACGGCACCCACCUAAGGCGAACGGUAUGGUGAAGGCAUAGUCAAGGGAGUGGCGAAAGUCACACAAACCGG [A111C A120U A145G C150G C169A]	0.00873
GUGCCUUGCGCCGGGAAACCACGCAAGGGAUGGUGUCAAAUUCGGCGAAACCUAAGCGCCCGCCCGGGCGUAUGGCAACGCCGAGCCAAGCUUCGGCGCCUGCGCCGAUGCAGGUGUAGUGACUAGACGGCACCCACCUAAGGCGAACGGUAUGGUGAAGGCAUAGUCAAGGGAGAGGCGAAAGUCACACAAACCGG [A111C A120U A145G C150G C169A U176A]	0.0118
GUGCCUUGCGCCGGGAAACCACGCAAGGGAUGGUGUCAAAUUCGGCGAAACCUAAGCGCCCGCCCGGGCGUAUGGCAACGCCGAGCCAAGCUUCGGCGCCUGCGCCGAUGCAGGUGUAGUGACUAGACGGCACCCACCUAAGGCGAACGGUAUGGUGAAGGCAUAGUCAAGGGAGCGGCGAAAGUCACACAAACCGG [A111C A120U A145G C150G C169A U176C]	0.009
GUGCCUUGCGCCGGGAAACCACGCAAGGGAUGGUGUCAAAUUCGGCGAAACCUAAGCGCCCGCCCGGGCGUAUGGCAACGCCGAGCCAAGCUUCGGCGCCUGCGCCGAUGCAGGUGUAGUGACUAGACGGCACCCACCUAAGGCGAACGGUAUGGUGAAGGCAUAGUCAAGGGAGGGGCGAAAGUCACACAAACCGG [A111C A120U A145G C150G C169A U176G]	0.00554
GUGCCUUGCGCCGGGAAACCACGCAAGGGAUGGUGUCAAAUUCGGCGAAACCUAAGCGCCCGCCCGGGCGUAUGGCAACGCCGAGCCAAGCUUCGGCGCCUGCGCCGAUGCAGGUGUAGUGACUAGACGGCACCCACCUAAGGCGAACGGUAUGGUGAAGGCAUAGUCGAGGGAGUGGCGAAAGUCACACAAACCGG [A111C A120U A145G C150G C169G]	0.0117
GUGCCUUGCGCCGGGAAACCACGCAAGGGAUGGUGUCAAAUUCGGCGAAACCUAAGCGCCCGCCCGGGCGUAUGGCAACGCCGAGCCAAGCUUCGGCGCCUGCGCCGAUGCAGGUGUAGUGACUAGACGGCACCCACCUAAGGCGAACGGUAUGGUGAAGGCAUAGUCGAGGGAGAGGCGAAAGUCACACAAACCGG [A111C A120U A145G C150G C169G U176A]	0.00935
GUGCCUUGCGCCGGGAAACCACGCAAGGGAUGGUGUCAAAUUCGGCGAAACCUAAGCGCCCGCCCGGGCGUAUGGCAACGCCGAGCCAAGCUUCGGCGCCUGCGCCGAUGCAGGUGUAGUGACUAGACGGCACCCACCUAAGGCGAACGGUAUGGUGAAGGCAUAGUCGAGGGAGCGGCGAAAGUCACACAAACCGG [A111C A120U A145G C150G C169G U176C]	0.00876
GUGCCUUGCGCCGGGAAACCACGCAAGGGAUGGUGUCAAAUUCGGCGAAACCUAAGCGCCCGCCCGGGCGUAUGGCAACGCCGAGCCAAGCUUCGGCGCCUGCGCCGAUGCAGGUGUAGUGACUAGACGGCACCCACCUAAGGCGAACGGUAUGGUGAAGGCAUAGUCGAGGGAGGGGCGAAAGUCACACAAACCGG [A111C A120U A145G C150G C169G U176G]	0.00386
